Test [1] has as its target CAP protein (Escherichia coli, UniProt P0ACJ8). Conditions: in the absence of cAMP.
Test [2] has as its system TRP2/TRP3 and TRP1/TRP4 duplexes. Put plainly: two-color simultaneous detection, fluorescein-labeled TrpR constructs. Type of test: binding. The settings on record: excitation 490 nm, one protein only. The text has this:
The compatibility of the assays described in the instant invention with a variety of fluorescence probes emitting at different wavelengths allows for the designing of variations in which two or more proteins may be detected simultaneously. Nucleic acid constructs specific for each of the proteins to be detected may be labeled with probes that emit light at different wavelengths. In this example, the reaction mixture contained nucleic acid constructs labeled with 7-diethylaminocoumarin-3-carboxylic acid for detecting CAP protein (described in EXAMPLE 2) and nucleic acid constructs labeled with fluorescein for detecting TrpR protein (described in EXAMPLE 6). Specifically, 100 nM CAP5/CAP3, 120 nM CAP1/CAP4, 100 nM TRP2/TRP3, and 120 nM TRP1/TRP4 duplexes were present in the reaction mixture.
The fluorescence spectra with the excitation at 433 nm (excitation of 7-diethylaminocoumarin-3-carbo acid, FIG. 17A) and with the excitation at 490 nm (excitation of fluorescein, FIG. 17B) were recorded in the absence of the proteins (curves 1), in the presence of CAP only (curves 2), in the presence of TrpR only (curves 3), and in the presence of both CAP and TrpR (curves 4). In the presence of only CAP there was no change in the fluorescein signal (FIG. 17B, curve 2) whereas about 60% quenching of the 7-diethylaminocoumarin-3-carbox acid signal was observed (FIG. 17A, curve 2). […]

Test [3] deals with consensus CAP site split between CAP1/CAP4 and CAP2/CAP3 duplexes. Put plainly: CAP detection by fluorescence quenching, fluorescein/dabcyl-labeled half-site duplexes. Type of test: binding, E. coli. The source says: A 38 bp DNA sequence corresponding to a consensus CAP site (Ebright, R. H., Ebright, Y. W. & Gunasakera, A. Nucleic Acids Res. 17, 10295–10305, 1989) was used as a basis for designing oligonucleotides necessary for preparing the CAP assay reagents according to the scheme illustrated in FIG. 1A. FIG. 3 illustrates the details of the design used. The following four oligonucleotides were synthesized using standard phosphoramidate automated oligonucleotide synthesis (F=dT-fluorescein; D=dT-dabcyl):
The fluorescence donor (fluorescein) and the fluorescence acceptor (dabcyl) were introduced into DNA fragments using commercially available dT-fluorescein and dT-dabcyl (Glen Research, Sterling, Va.) , wherein dT stands for deoxythymidine. […] The fractions containing the oligonucleotides were dried in a vacuum centrifuge concentrator and subsequently dissolved in 50 μl of water. […] The CAP1 oligonucleotide (SEQ ID NO:1) was hybridized with CAP4 oligonucleotide (SEQ ID NO:4) to generate the CAP1/CAP4 duplex and CAP2 oligonucleotide (SEQ ID NO:2) was hybridized with CAP3 oligonucleotide (SEQ ID NO:3) to generate the CAP2/CAP3 duplex. […] The excitation wavelength was at 490 nm and the emission was recorded from 500 to 650 nm.
FIG. 4B illustrates changes in fluorescence observed upon the addition of CAP protein. The spectrum of 50 nM of the CAP1/CAP4 duplex and 50 nM of the CAP2/CAP3 duplex was recorded (curve 1). CAP protein was added at 75 nM and after 15 minutes of incubation the spectrum was recorded (curve 2). A major quenching of fluorescence of approximately 50% of the control signal intensity was observed, which is consistent with the prediction that in the presence of CAP protein the association between the CAP1/CAP4 and CAP2/CAP3 duplexes is facilitated and that the fluorescein (fluorescent donor) present in the CAP2/CAP3 duplex is brought into close proximity to the dabcyl (fluorescent acceptor) present in the CAP1/CAP4 duplex, which results in the quenching of fluorescence emission due to FRET between the fluorescein and dabcyl.
FIG. 6 illustrates the change in fluorescence observed upon addition of increasing amounts of CAP protein in the assay. The experiments were performed under the same conditions as those for the experiment described above and in FIG. 4. Fluorescence quenching increased proportionally with the increase of CAP concentration until a saturation of the signal occurred at ˜150 nM protein.
The kinetics of CAP induced fluorescence quenching was also studied to determine the time required for completion of the assay (FIG. 7). […] At the time indicated by the arrow in FIG. 7, 100 nM CAP protein was added and monitoring of the fluorescence signal was resumed.

Test [4] relates to CAP7/CAP8/CAP9 construct. Put plainly: CAP assay variant with DNA linked by a long flexible linker. Type of test: binding, E. coli. Conditions: 75 nM CAP. The source says: The properties of the assay illustrated in FIG. 1 depend upon the total concentration of the nucleic acid components. By covalently linking the two DNA duplexes—i.e., the components of the assay—by a long flexible linker, the assay becomes independent of DNA concentration, within a range of detectability of fluorescence signal and within a range of concentration required for efficient protein binding. FIG. 11 illustrates the design this variant of the assay for CAP detection. The nucleic acid components of the assay were covalently linked during oligonucleotide synthesis by introducing 12 moieties of the Spacer 18 phosphoramidate (Glen Research, Sterling, Va.), the structure of which is shown in FIG. 11B. The addition of 12 units of Spacer 18 results in a distance of ˜270 Å between the linked oligonucleotides. […]
FIG. 12 illustrates the enhanced performance of the variation of the invention depicted in FIG. 11. […] The kinetics of CAP induced fluorescence quenching was also studied to determine the incubation time necessary for the completion of the assay (FIG. 12B). In this experiment, the fluorescence intensity of 50 nM of the CAP7/CAP8/CAP9 construct was monitored as a function of time at 520 nm with the excitation wavelength set at 490 nm. At the time indicated by the arrow in FIG. 12B, 75 nM CAP protein was added and the monitoring of the fluorescence signal was resumed. […]

Entries after “also recorded” stand apart in the source; their conditions may differ. Some results are limits rather than exact numbers.

B1: CAP: bacterial transcription activator from E. coli which binds DNA in a sequence specific, cAMP-dependent manner (protein, UniProt P0ACJ8 2-210, looked up)
DNA-binding transcriptional …: VLGKPQTDPTLEWFLSHCHIHKYPSKSTLIHQGEKAETLYYIVKGSVAVLIKDEEGKEMILSYLNQGDFIGELGLFEEGQERSAWVRAKTACEVAEISYKKFRQLIQVNPDILMRLSAQMARRLQVTSEKVGNLAFLDVTGRIAQTLLNLAKQPDAMTHPDGMQIKITRQEIGQIVGCSRETVGRILKMLEDQNLISAHGKTIVVYGTR
For the molecule B1, the “CAP binding to the CAP1/CAP4 and CAP2/CAP3 DNA duplex” value in test [1] is on record as “No detectable binding”. Further, in test [2], the “quenching of the fluorescein signal” value is “no change”. Also, in test [3] (50 nM duplexes), the “protein concentration at saturation of the quenching signal” value is ~150 nM. In test [3] (75 nM CAP, 15 minutes, 50 nM of each duplex, 200 μM cAMP), the quenching of fluorescence entry was “approximately 50%”. Also, in test [3] (100 nM CAP, emission 520 nm), the “time for the reaction to go to completion” value was “approximately 15 minutes”. For the same molecule, the “change in fluorescence upon addition of CAP” value in test [3] (in the absence of cAMP) is listed as “No change in fluorescence; also recorded: does not produce a change in fluorescence signal intensity”. The “time for completion of the reaction” value in test [4] was ≤ 20 s. In addition, in test [4] (50 nM construct, 200 μM cAMP), the “quenching of the fluorescence signal” value is given as ~70%.

Source of the values: patent US7172865B2, “Rapid and sensitive assay for the detection and quantification of coregulators of nucleic acid binding factors” (Saint Louis University, priority 2001, dated 2007).
